Experimental data published in article PMC6242908.
pKd: −log10 of the molar value.

Biological target: MBP-KRIPP11-His6 (Trypanosoma brucei) (UniProt Q57YK5)
Assay: fluorescence anisotropy
Details: DNA; FA: 20 mM Tris-HCl pH 7.5, 150 mM KCl, 5 mM MgCl2, 1 mM DTT, 20 nM RNA/DNA, 25 C; EMSA: same buffer with BSA and RNAsin, 150 nM RNA/DNA, 2% tris-glycine …

| Sequence | pKd |
| --- | --- |
| GGGGGGGGGGGG [dG12] | 5.73 |

Same assay, conditions: FA: 20 mM Tris-HCl pH 7.5, 150 mM KCl, 5 mM MgCl2, 1 mM DTT, 20 nM RNA/DNA, 25 C; EMSA: same buffer with BSA and RNAsin, 150 nM RNA/DNA, 2% tris-glycine …

| Sequence | pKd |
| --- | --- |
| GGGGGG [G6 RNA] | 5.97 |
| GGGGGGCCUUAA [G6C2U2A2] | 6.03 |
| GGGGGGGGG [G9 RNA] | 5.73 |
| GGGG [G4 RNA] | 5.47 |
| GGGGGGGGGGGG [G12 RNA (native)] | 6.18 |
| GGGGCCUUUAAA [G4C2U3A3] | 5.66 |
| GGUGGUGGUGGU [(GGU)4] | 5.18 |
